Tests used:
HLA-A*01:01 = experiment: IEDB peptide-MHC binding, purified MHC/direct/fluorescence; filed as Kd, often an IC50 or EC50 that approximates it; ≥ and ≤ were set here for values at or beyond the usual limits of such assays
HLA-A*02:01 = experiment: as above
HLA-A*11:01 = experiment: as above
HLA-A*26:02 = experiment: as above; conditions: source organism: Ravn virus - Ravn, Kenya, 1987
HLA-A*26:03 = experiment: as above; conditions: source organism: Ravn virus - Ravn, Kenya, 1987
HLA-A*31:01 = experiment: as above
HLA-A*68:02 = experiment: as above; conditions: source organism: Marburg virus - Musoke, Kenya, 1980
HLA-A*69:01 = experiment: as above
HLA-B*07:02 = experiment: as above
HLA-B*08:02 = experiment: as above
HLA-B*08:03 = experiment: as above; conditions: source organism: Ravn virus - Ravn, Kenya, 1987
HLA-B*15:17 [1] = experiment: as above; conditions: source organism: Marburg virus - Musoke, Kenya, 1980
HLA-B*18:01 = experiment: as above
HLA-B*27:05 = experiment: as above
HLA-B*39:01 [2] = experiment: as above; conditions: source organism: Ravn virus - Ravn, Kenya, 1987
HLA-B*40:01 = experiment: as above
HLA-B*44:02 = experiment: as above
HLA-B*48:01 = experiment: as above
HLA-B*57:01 = experiment: as above
HLA-B*58:01 = experiment: as above
HLA-B*15:02 = experiment: as above; conditions: source organism: dengue virus type 4
HLA-B*46:01 = experiment: as above
HLA-A*02:10 = experiment: as above; conditions: source organism: Rickettsia typhi
HLA-A*02:11 = experiment: as above
HLA-A*02:12 = experiment: as above
HLA-A*02:19 = experiment: as above; conditions: source organism: Rickettsia typhi
HLA-A*02:50 = experiment: as above; conditions: source organism: Rickettsia typhi
HLA-A*03:01 = experiment: as above
HLA-A*23:01 = experiment: as above; conditions: source organism: Rickettsia typhi
HLA-A*24:03 = experiment: as above; conditions: source organism: Rickettsia typhi
HLA-A*29:02 = experiment: as above; conditions: source organism: Rickettsia typhi
HLA-A*30:01 [3] = experiment: as above; conditions: source organism: Rickettsia typhi
HLA-A*80:01 = experiment: as above; conditions: source organism: Rickettsia typhi
HLA-B*15:01 = experiment: as above
HLA-B*51:01 = experiment: as above; conditions: source organism: Rickettsia typhi
HLA-A*02:03 = experiment: as above; conditions: source organism: Giardia lamblia ATCC 50803
HLA-A*26:01 = experiment: as above; conditions: source organism: Giardia lamblia ATCC 50803
HLA-B*08:01 = experiment: as above; conditions: source organism: Giardia lamblia ATCC 50803
HLA-B*38:01 = experiment: as above; conditions: source organism: Giardia lamblia ATCC 50803
HLA-A*30:01 [4] = experiment: IEDB peptide-MHC binding, purified MHC/competitive/fluorescence; filed as Kd, often an IC50 or EC50 that approximates it; ≥ and ≤ were set here for values at or beyond the usual limits of such assays; conditions: source organism: Giardia lamblia ATCC 50803
HLA-B*15:09 = experiment: as above; conditions: source organism: Giardia lamblia ATCC 50803
HLA-B*15:17 [5] = experiment: as above; conditions: source organism: Giardia lamblia ATCC 50803
HLA-B*39:01 [6] = experiment: as above; conditions: source organism: Giardia lamblia ATCC 50803
[7] = source organism: Marburg virus - Musoke, Kenya, 1980
[8] = source organism: Rickettsia typhi
[9] = source organism: Rickettsia prowazekii
[10] = source organism: Giardia lamblia ATCC 50803

In the case of AEALLADGL, the Kd (HLA-A*01:01; [7]) is reported as ≥ 20 µM, the Kd (HLA-A*02:01; [7]) is reported as ≥ 20 µM and the Kd (HLA-A*11:01; [7]) is reported as ≥ 20 µM. For the same sequence, the Kd (HLA-A*26:02) was ≥ 20 µM, the Kd (HLA-A*26:03) was ≥ 20 µM and the Kd (HLA-A*31:01; [7]) was ≥ 20 µM. The Kd (HLA-A*68:02) was ≥ 20 µM, the Kd (HLA-A*69:01; [7]) was ≥ 20 µM and the Kd (HLA-B*07:02; [7]) was ≥ 20 µM. For the same sequence, the Kd (HLA-B*08:02; source organism: Ravn virus - Ravn, Kenya, 1987) was ≥ 20 µM, the Kd (HLA-B*08:03) was ≥ 20 µM and the Kd (HLA-B*15:17 [1]) was ≥ 20 µM. The Kd (HLA-B*18:01; [7]) was 1.75 µM, the Kd (HLA-B*27:05; [7]) was ≥ 20 µM and the Kd (HLA-B*39:01 [2]) was ≥ 20 µM. For the same sequence, the Kd (HLA-B*40:01; [7]) was 0.0113 µM, the Kd (HLA-B*44:02; [7]) was ≥ 10 µM and the Kd (HLA-B*48:01; [7]) was ≥ 20 µM. The Kd (HLA-B*57:01; [7]) was ≥ 20 µM and the Kd (HLA-B*58:01; [7]) was ≥ 20 µM.
In the case of AQEDDQYVF, the Kd (HLA-B*15:02) is reported as ≥ 20 µM and the Kd (HLA-B*46:01; source organism: dengue virus type 4) is reported as ≥ 20 µM.
For ELYPTVNTY, the Kd (HLA-A*02:10) was ≥ 20 µM, the Kd (HLA-A*02:11; [8]) was ≥ 20 µM and the Kd (HLA-A*02:12; [8]) was ≥ 20 µM. The Kd (HLA-A*02:19) was ≥ 20 µM, the Kd (HLA-A*02:50) was ≥ 20 µM and the Kd (HLA-A*03:01; [9]) was 2.02 µM. The Kd (HLA-A*23:01) was ≥ 20 µM, the Kd (HLA-A*24:03) was ≥ 20 µM and the Kd (HLA-A*29:02) was 0.055 µM. The Kd (HLA-A*30:01 [3]) was ≥ 20 µM, the Kd (HLA-A*69:01; [9]) was 14.5 µM and the Kd (HLA-A*80:01) was 4.5 µM. For the same sequence, the Kd (HLA-B*15:01; [9]) was 0.228 µM, the Kd (HLA-B*44:02; [8]) was ≥ 20 µM and the Kd (HLA-B*51:01) was ≥ 20 µM. For the same sequence, the Kd (HLA-B*57:01; [8]) was ≥ 20 µM.
In the case of LPVFATIGL, the Kd (HLA-A*01:01; [10]) is reported as ≥ 20 µM, the Kd (HLA-A*02:01; [10]) is reported as 7.53 µM and the Kd (HLA-A*02:03) is reported as ≥ 20 µM. For the same sequence, the Kd (HLA-A*02:11; [10]) was 0.146 µM, the Kd (HLA-A*02:12; [10]) was 0.393 µM and the Kd (HLA-A*03:01; [10]) was ≥ 20 µM. The Kd (HLA-A*11:01; [10]) was ≥ 20 µM, the Kd (HLA-A*26:01) was ≥ 20 µM and the Kd (HLA-A*31:01; [10]) was ≥ 20 µM. For the same sequence, the Kd (HLA-A*69:01; [10]) was 0.0117 µM, the Kd (HLA-B*07:02; [10]) was 0.0583 µM and the Kd (HLA-B*08:01) was ≥ 20 µM. For the same sequence, the Kd (HLA-B*08:02; [10]) was ≥ 20 µM, the Kd (HLA-B*15:01; [10]) was ≥ 20 µM and the Kd (HLA-B*18:01; [10]) was 3.1 µM. For the same sequence, the Kd (HLA-B*27:05; [10]) was ≥ 20 µM, the Kd (HLA-B*38:01) was ≥ 20 µM and the Kd (HLA-B*40:01; [10]) was ≥ 20 µM. For the same sequence, the Kd (HLA-B*46:01; [10]) was ≥ 20 µM, the Kd (HLA-B*48:01; [10]) was ≥ 20 µM and the Kd (HLA-B*57:01; [10]) was ≥ 20 µM. For the same sequence, the Kd (HLA-B*58:01; [10]) was ≥ 20 µM, the Kd (HLA-A*30:01 [4]) was ≥ 20 µM and the Kd (HLA-B*15:09) was 1.98 µM. For the same sequence, the Kd (HLA-B*15:17 [5]) was ≥ 20 µM and the Kd (HLA-B*39:01 [6]) was 0.0902 µM.

From the Immune Epitope Database (IEDB)
